Assay results taken from patent US20240409935.

T1: endogenous PACT, O75569
T1 chain: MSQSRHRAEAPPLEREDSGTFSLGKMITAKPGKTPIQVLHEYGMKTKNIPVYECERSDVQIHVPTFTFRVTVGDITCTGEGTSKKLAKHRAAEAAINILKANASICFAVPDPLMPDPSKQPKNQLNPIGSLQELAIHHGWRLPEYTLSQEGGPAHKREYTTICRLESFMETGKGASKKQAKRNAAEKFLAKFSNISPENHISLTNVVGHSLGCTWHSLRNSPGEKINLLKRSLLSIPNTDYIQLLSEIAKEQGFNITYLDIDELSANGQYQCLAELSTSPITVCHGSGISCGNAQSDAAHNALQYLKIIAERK

T2: GFP-PACT, O75569
T2 chain: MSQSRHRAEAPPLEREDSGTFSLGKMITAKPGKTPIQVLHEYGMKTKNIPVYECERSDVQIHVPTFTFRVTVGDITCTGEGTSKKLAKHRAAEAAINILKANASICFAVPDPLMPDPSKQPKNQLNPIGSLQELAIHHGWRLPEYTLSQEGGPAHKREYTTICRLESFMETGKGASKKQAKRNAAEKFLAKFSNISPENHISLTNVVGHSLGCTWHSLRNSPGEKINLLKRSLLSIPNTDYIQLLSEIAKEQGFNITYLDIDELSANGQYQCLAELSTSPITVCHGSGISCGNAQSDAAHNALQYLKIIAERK


Experiments:
endogenous PACT, O75569 = biological target: T1, endogenous PACT, O75569
GFP-PACT, O75569 = biological target: T2, GFP-PACT, O75569

| Protein | PKR phosphorylation (endogenous PACT, O75569) | PKR phosphorylation (GFP-PACT, O75569) |
| --- | --- | --- |
| FLAG-PKR (protein) MAGDLSAGFFMEELNTYRQKQGVVLKYQELPNSGPPHDRRFTFQVIIDGREFPEGEGRSKKEAKNAAAKLAVEILNKEKKAVSPLLLTTTNSSEGLSMGNYIGLINRIAQKKRLTVNYEQCASGVHGPEGFHYKCKMGQKEYSIGTGSTKQEAKQLAAKLAYLQILSEETSVKSDYLSSGSFATTCESQSNSLVTSTLASESSSEGDFSADTSEINSNSDSLNSSSLLMNGLRNNQRKAKRSLAPRFDLPDMKETKYTVDKRFGMDFKEIELIGSGGFGQVFKAKHRIDGKTYVIKRVKYNNEKAEREVKALAKLDHVNIVHYNGCWDGFDYDPETSDDSLESSDYDPENSKNSSRSKTKCLFIQMEFCDKGTLEQWIEKRRGEKLDKVLALELFEQITKGVDYIHSKKLIHRDLKPSNIFLVDTKQVKIGDFGLVTSLKNDGKRTRSKGTLRYMSPEQISSQDYGKEVDLYALGLILAELLHVCDTAFETSKFFTDLRDGIISDIFDKKEKTLLQKLLSKKPEDRPNTSEILRTLTVWKKSPEKNERHTC | increased PKR phosphorylation under the same conditions | – |
| endogenous PKR (protein) AGDLSAGFFMEELNTYRQKQGVVLKYQELPNSGPPHDRRFTFQVIIDGREFPEGEGRSKKEAKNAAAKLAVEILNKEKKAVSPLLLTTTNSSEGLSMGNYIGLINRIAQKKRLTVNYEQCASGVHGPEGFHYKCKMGQKEYSIGTGSTKQEAKQLAAKLAYLQILSEETSVKSDYLSSGSFATTCESQSNSLVTSTLASESSSEGDFSADTSEINSNSDSLNSSSLLMNGLRNNQRKAKRSLAPRFDLPDMKETKYTVDKRFGMDFKEIELIGSGGFGQVFKAKHRIDGKTYVIKRVKYNNEKAEREVKALAKLDHVNIVHYNGCWDGFDYDPETSDDSLESSDYDPENSKNSSRSKTKCLFIQMEFCDKGTLEQWIEKRRGEKLDKVLALELFEQITKGVDYIHSKKLIHRDLKPSNIFLVDTKQVKIGDFGLVTSLKNDGKRTRSKGTLRYMSPEQISSQDYGKEVDLYALGLILAELLHVCDTAFETSKFFTDLRDGIISDIFDKKEKTLLQKLLSKKPEDRPNTSEILRTLTVWKKSPEKNERHTC | – | this was accompanied by an increase in PKR phosphorylation during lysosomal damage |
